In US20250361295A1:

How the values were obtained:
[1] = molecular target: human LILRB4 (human) (UniProt Q8NHJ6); test: cell-based or functional assay
[2] = molecular target: cynomolgus (Macaca fascicularis) LILRB4 (cynomolgus (Macaca fascicularis)); test: FACS, CHO-S-cynoLILRB4 cells
[3] = molecular target: human LILRA6 protein (human) (UniProt Q6PI73); test: ELISA, LILRA6 protein
[4] = molecular target: human LILRB4 (human) (UniProt Q8NHJ6); test: FACS, 293F-hLILRB4 cells

Sequence of human LILRB4 (human) (Q8NHJ6 22-448): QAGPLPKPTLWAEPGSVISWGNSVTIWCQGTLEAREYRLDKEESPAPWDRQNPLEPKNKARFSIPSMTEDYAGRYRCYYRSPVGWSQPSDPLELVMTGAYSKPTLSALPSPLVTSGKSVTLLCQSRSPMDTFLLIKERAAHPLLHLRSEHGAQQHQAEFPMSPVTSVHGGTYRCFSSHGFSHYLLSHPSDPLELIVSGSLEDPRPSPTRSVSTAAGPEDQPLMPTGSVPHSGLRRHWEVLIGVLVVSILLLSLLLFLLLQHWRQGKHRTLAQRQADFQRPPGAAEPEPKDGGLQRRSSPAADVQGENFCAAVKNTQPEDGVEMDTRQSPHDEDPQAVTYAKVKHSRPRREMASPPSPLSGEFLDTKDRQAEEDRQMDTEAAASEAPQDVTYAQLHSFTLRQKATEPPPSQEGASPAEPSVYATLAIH
Sequence of human LILRA6 protein (human) (Q6PI73 24-447 limits assumed): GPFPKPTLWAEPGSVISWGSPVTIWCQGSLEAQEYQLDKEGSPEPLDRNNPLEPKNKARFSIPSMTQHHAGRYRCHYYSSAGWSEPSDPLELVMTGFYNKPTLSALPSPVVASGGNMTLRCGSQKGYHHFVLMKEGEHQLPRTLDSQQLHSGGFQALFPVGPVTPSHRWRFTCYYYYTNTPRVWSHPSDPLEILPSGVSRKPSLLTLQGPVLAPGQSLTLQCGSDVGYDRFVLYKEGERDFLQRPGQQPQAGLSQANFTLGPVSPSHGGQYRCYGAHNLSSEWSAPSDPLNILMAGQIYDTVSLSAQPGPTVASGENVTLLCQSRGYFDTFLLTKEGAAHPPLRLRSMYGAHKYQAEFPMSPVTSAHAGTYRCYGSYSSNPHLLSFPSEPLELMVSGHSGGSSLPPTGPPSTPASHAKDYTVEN

| ADCP (%) at 133.3 nM, macrophages and MV-4-11 cells [1] | EC50 (nM), ADCC on THP-1 cells [1] | FcγR stimulation (TNF-α, pg/mL) [1] | Fold change (Compared to isotype) [1] | Max MFI [2] | ELISA(OD450) [3] | EC50 [4] | Max MFI [4] | Binder | Max cell cytotoxicity (%), ADCC on THP-1 cells [1] |
| --- | --- | --- | --- | --- | --- | --- | --- | --- | --- |
| 6.37% | 488 nM | 261 pg/mL | 8.26 fold | 822 MFI | 1.32 OD450 | 4.39 nM | 30400 MFI | NGM831 (antibody, V domains shown) VH: EVQLQQSGPEVKPGASVKISCKASGYTFTDYNMDWVKQSHGKSEWIGYIYPSNGGTGYNQKFKSKATLTVDKSSNTAYMELHSLTSEDSAVYYCARVPYYDYLYYYAMDYWGQGTSVTVSS VL: QIVLSQSPAILSASPGEKVTMACRASSSVSFMHWYQQKPGSSPQPWIYATSNLASGVPARFSGSGSGTSYSLTISRVEAEDAATYYCQQWSTNPYMYTFGGGTKLEIK | -6.89% |
|  |  |  |  |  | 0.302 OD450 |  |  | ch48-E11-H7-B5 (antibody, V domains shown) VH: EVQLVESGGGLVKPGGSLKLSCAASGFTFSSYAMSWVRQTPEKRLEWVASITIGDDTYYPDSVKGRFTISRDHAKNILYLQVSSLRSEDTAMYSCARGVNSYGSSYRYFDVWGAGTTVTVSS VL: DIVMTQSHKFMSTSVGDRVSITCKASQDVSTAVAWYQQKPGQSPKLLIYWASTRHTGVPDRFTGSGSGTDYTLTISSVQAEDLALYYCQQHYSIPFTFGAGTKLEK |  |
